# Reference: patent US20080305099
# What was measured:
# Aβ42 = Aβ42 (UniProt P05067)
# synthetic Aβ40 = synthetic Aβ40 (UniProt P05067)
# [1] = tested on: ACTH (adrenocorticotropic hormone)
substance,measurement,setting,value
recombinant GCP-II protein purified from insect cells (Sf21),MALDI-TOF molecular weight after reaction with GCP-II at 37° C. for 15 hours,insulin β-chain,characteristically not degraded by GCP-II
same,MALDI-TOF molecular weight after reaction with GCP-II at 37° C. for 15 hours,amylin,amylin showed two peaks at 1500 and 2000 after being reacted with GCP-II
same,"endogenous Aβ42 remaining (ELISA) in the medium of swAPP stable HEK293 colony #2 with 0, 0.5, 2.5 and 10 of rGCP-II",Aβ42,the level of endogenous Aβ42 was decreased
same,Western blot (anti-Aβ antibody 6E10) of Aβ matured for 7 days after 20 hours with rGCP-II,Aβ (length not stated),Aβ in oligomer form (multimer) was reduced faster than Aβ monomer
same,MALDI-TOF of Aβ40 reacted with GCP-II protein at more than 25 ng/µL,synthetic Aβ40,"only one peak was observed at 2,167 which corresponds to Aβ18"
same,MALDI-TOF of Aβ40 reacted with GCP-II protein for 20 hours,synthetic Aβ40,two new peaks were observed at 3915 and 2662 in Aβ reacted with 0.5 ng/µM of GCP-II
same,MALDI-TOF of Aβ reacted with GCP-II inactivated by heating (boiled rGCP-II),synthetic Aβ40,Aβ was not degraded by the inactivated GCP-II
same,MALDI-TOF molecular weight after reaction with GCP-II at 37° C. for 15 hours,[1],characteristically not degraded by GCP-II
